Reference: patent US20210155689A1 (SHANGHAI PHARMAEXPLORER, published 2021)

Experiments:
[1] = target: T1, monkey LAG-3 on cells (HEK293-cLAG-3 stable cell line) (monkey, UniProt P18627 24-525 (human entry)); test: FACS, HEK293-cLAG-3, antibody 8.000 nM
T1 construct: Full-length monkey (Chinese monkey) LAG-3 gene expressed on HEK293 cells
T1 chain: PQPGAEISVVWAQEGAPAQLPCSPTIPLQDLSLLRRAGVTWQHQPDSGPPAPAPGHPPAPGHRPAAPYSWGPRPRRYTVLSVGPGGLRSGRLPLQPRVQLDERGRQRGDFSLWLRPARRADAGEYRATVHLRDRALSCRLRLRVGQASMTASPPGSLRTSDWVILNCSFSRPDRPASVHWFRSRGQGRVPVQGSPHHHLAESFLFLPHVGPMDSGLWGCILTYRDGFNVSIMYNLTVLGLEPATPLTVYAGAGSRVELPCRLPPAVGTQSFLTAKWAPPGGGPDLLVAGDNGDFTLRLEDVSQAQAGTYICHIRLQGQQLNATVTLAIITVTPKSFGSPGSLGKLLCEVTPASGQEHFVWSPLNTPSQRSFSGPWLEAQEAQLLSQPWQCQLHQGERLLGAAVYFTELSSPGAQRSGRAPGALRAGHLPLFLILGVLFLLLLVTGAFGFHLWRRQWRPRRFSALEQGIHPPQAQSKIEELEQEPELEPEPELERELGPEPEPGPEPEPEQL
Excerpt: (§1) The pIRES plasmid with the monkey-derived full-length gene was transfected into the HEK293 cell line to construct a HEK293 stable cell line containing monkey LAG-3 (herein referred to as HEK293-cLAG-3 stable cell line). The HEK293-hLAG-3 stable cell line and HEK293-cLAG-3 stable cell line were expanded in a T-75 cell culture flask to a 90% confluence. The medium was aspirated, and the cells were washed with HBSS (Hanks' Balanced Salt Solution) 1-2 times, then treated with a enzyme-free cell dissociation fluid (Versene solution: Life technology) and the cells were collected. The cells were washed with HBSS buffer for 1-2 times. After counted, the cells were diluted with HBSS to 1-2×10⁶ cells per ml, added with 1% goat serum blocking solution, incubated on ice for 20-30 minutes, and then washed with HBSS for 2 times by centrifugation. The collected cells were suspended in the FACS buffer (HBSS+1% BSA) to 2×10⁶ cells/ml, added as 100 microliters per well to a 96-well FACS reaction plate, added with 100 microliters per well of the antibody sample to be tested, incubated on ice for 1-2 hours. The plate was washed twice with the FACS buffer by centrifugation, added with 100 microliters of fluorescent (Alexa 488)-labeled secondary antibodies per well, and incubated on ice for 0.5-1.0 hours. The plate was washed 2-3 times with FACS buffer by centrifugation, added with 100 μl fixative solution (4% Paraformaldehyde) per well to suspend the cells. 5-10 minutes later, it was washed 1-2 times with FACS buffer by centrifugation. The cells were suspended with 100 microliters of FACS buffer, FACS (FACSCalibur, BD) was used for detection and the results were analyzed.

[2] = target: T1, monkey LAG-3 on cells (HEK293-cLAG-3 …); test: FACS, HEK293-cLAG-3, antibody 0.013 nM
Excerpt: as §1

[3] = target: T2, human LAG-3 on cells (HEK293-hLAG-3 stable cell line) (human, UniProt P18627 23-525); test: cell-based or functional assay
T2 sequence: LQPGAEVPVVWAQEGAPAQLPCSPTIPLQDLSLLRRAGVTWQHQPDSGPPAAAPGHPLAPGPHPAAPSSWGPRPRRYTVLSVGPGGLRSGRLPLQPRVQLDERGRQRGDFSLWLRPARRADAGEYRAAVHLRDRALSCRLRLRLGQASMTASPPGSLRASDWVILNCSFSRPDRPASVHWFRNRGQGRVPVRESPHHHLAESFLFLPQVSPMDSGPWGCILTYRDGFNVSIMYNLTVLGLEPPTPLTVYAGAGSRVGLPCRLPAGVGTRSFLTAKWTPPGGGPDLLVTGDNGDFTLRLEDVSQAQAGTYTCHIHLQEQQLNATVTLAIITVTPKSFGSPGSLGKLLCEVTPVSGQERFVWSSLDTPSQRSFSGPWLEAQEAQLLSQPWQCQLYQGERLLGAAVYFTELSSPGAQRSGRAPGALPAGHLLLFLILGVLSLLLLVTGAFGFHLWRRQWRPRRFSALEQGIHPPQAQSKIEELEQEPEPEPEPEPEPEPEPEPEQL

B1: 409D4E10 mouse-human chimeric antibody (antibody, V domains shown)
VH: QVQLQQSGAELVRPGASVTLSCKASGNTFTDYEMHWVKQTPVHGLEWIGATDPETDNTAYNQKFKGKAILTTDKSSSTAYMELRSLTSEDSAVYYCITSGWNDWGQGTSLTVSS
VL: DIKMTQSPSSMYASLGERVTITCKASQDINSYLSWFQQKPGKSPKTLIYRANRLLDGVPSRFSGSGSGQDYSLTISSLEYEDMGIYYCLQYNEFPYTFGGGTKLEIK
notes: also called mAb112-409D4E10
Mean fluorescence intensity [1]: 61.5
Mean fluorescence intensity [2]: 3.36
IL-2 production, antigen-specific T lymphocyte stimulation test, 0.016 ug/ml, N = 1 [3]: 384 pg/mL
IL-2 production, antigen-specific T lymphocyte stimulation test, 0.016 ug/ml, N = 2 [3]: 334 pg/mL
IL-2 production, antigen-specific T lymphocyte stimulation test, 0.08 ug/ml, N = 1 [3]: 498 pg/mL
IL-2 production, antigen-specific T lymphocyte stimulation test, 0.08 ug/ml, N = 2 [3]: 534 pg/mL
IL-2 production, antigen-specific T lymphocyte stimulation test, 0.4 ug/ml, N = 1 [3]: 804 pg/mL
IL-2 production, antigen-specific T lymphocyte stimulation test, 0.4 ug/ml, N = 2 [3]: 678 pg/mL
IL-2 production, antigen-specific T lymphocyte stimulation test, 2 ug/ml, N = 1 [3]: 825 pg/mL
IL-2 production, antigen-specific T lymphocyte stimulation test, 2 ug/ml, N = 2 [3]: 673 pg/mL
IL-2 production, antigen-specific T lymphocyte stimulation test, 10 ug/ml, N = 1 [3]: 890 pg/mL
IL-2 production, antigen-specific T lymphocyte stimulation test, 10 ug/ml, N = 2 [3]: 801 pg/mL
